Test results taken from US7183387 (Genentech, dated 2007).
Where a chain is given by its changes, count along the chain named. Names may count otherwise.

Experiments:
[1] = molecular target: T1, human FcγRIIIA-Phe158 α subunit extracellular domain-His6-GST fusion (human, UniProt P08637 17-208); experiment: hexamer ELISA
T1 construct: extracellular domain; also called FcγRIIIA-F158; CD16; not shown: glutathione S transferase (GST)

[2] = molecular target: T2, human FcγRIIA-Arg131 α subunit extracellular domain-His6-GST fusion (human, UniProt P12318 34-217); experiment: hexamer ELISA
T2 construct: extracellular domain; also called FcγRIIA-R131; not shown: glutathione S transferase (GST)
T2 sequence: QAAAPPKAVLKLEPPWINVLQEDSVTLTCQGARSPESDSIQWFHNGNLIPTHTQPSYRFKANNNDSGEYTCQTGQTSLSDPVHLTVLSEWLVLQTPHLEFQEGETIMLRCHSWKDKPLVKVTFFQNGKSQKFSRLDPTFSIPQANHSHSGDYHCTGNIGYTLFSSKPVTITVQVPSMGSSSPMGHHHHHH

[3] = molecular target: T3, human FcγRIIB α subunit extracellular domain-His6-GST fusion (human, UniProt P31994 43-217); experiment: hexamer ELISA
T3 construct: extracellular domain; also called CD32; not shown: glutathione S transferase (GST)
T3 sequence: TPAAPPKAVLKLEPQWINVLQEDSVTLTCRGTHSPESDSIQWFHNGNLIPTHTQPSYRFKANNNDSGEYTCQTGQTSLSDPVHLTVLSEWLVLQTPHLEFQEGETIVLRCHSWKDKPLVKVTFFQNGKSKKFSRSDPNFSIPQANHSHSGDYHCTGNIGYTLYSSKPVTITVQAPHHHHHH

[4] = molecular target: T4, human neonatal Fc receptor (FcRn), biotinylated (human, UniProt P55899 24-297; P61769 21-119, biotinylated (biotin-X-NHS)); experiment: FcRn ELISA, pH 6.0;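 further: Streptavidin-captured FcRn plates, IgG variants titrated 2 h at pH 6.0, peroxidase anti-human IgG read at 450 nm, variant over standard concentration at the standard curve mid-point absorbance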
T4 construct: captured on streptavidin plates

[5] = molecular target: T5, human FcγRIIA-His131 α subunit extracellular domain-His6-GST fusion (human, UniProt P12318 34-217); experiment: hexamer ELISA
T5 construct: extracellular domain; also called FcγRIIA-H131; not shown: glutathione S transferase (GST)
T5 sequence: T2 sequence with R134H

[6] = molecular target: T6, human FcγRIA α subunit extracellular domain-His6-GST fusion (human, UniProt P12314 16-292); experiment: FcγRI ELISA and THP-1 cells, averaged
T6 construct: extracellular domain; also called GST-FcγRIA; CD64; not shown: glutathione S transferase (GST)

[7] = molecular target: T7, human FcγRIIA-H131 α subunit extracellular domain-His6-GST fusion protein (human, UniProt P12318 34-217); experiment: ELISA; binding ratio on FcγRIIA-H131 divided by that on FcγRIIA-R131
T7 construct: also called FcγRIIA-His131; not shown: glutathione S-transferase (GST)
T7 sequence: T2 sequence with R134H

[8] = molecular target: T7, human FcγRIIA-H131 α subunit …; experiment: ELISA, IgG:IgE hexamer on coated FcγRIIA-H131-GST
[9] = molecular target: T8, human FcγRIIA-R131 α subunit extracellular domain-His6-GST fusion protein (human, UniProt P12318 34-217); experiment: ELISA, IgG:IgE hexamer on coated FcγRIIA-R131-GST; separate assays run together with the H131 assays
T8 construct: ECD-6His-GST fusion made in 293 cells, coated on the plate; also called FcγRIIA-Arg131; not shown: glutathione S-transferase (GST)
T8 sequence: T2 sequence

[10] = molecular target: T8, human FcγRIIA-R131 α subunit …; experiment: ELISA, IgG:IgE hexamer on coated FcγRIIA-R131-GST; value said to be carried over from Table 6, 7 or 8
[11] = molecular target: T1, human FcγRIIIA-Phe158 α subunit …; experiment: hexamer ELISA; remark: listed apart in the source
[12] = molecular target: T6, human FcγRIA α subunit extracellular …; experiment: FcγRI ELISA and THP-1 cells, averaged (row shifted)
[13] = molecular target: T1, human FcγRIIIA-Phe158 α subunit …; experiment: hexamer ELISA (row shifted)
[14] = molecular target: T2, human FcγRIIA-Arg131 α subunit …; experiment: hexamer ELISA (row shifted)
[15] = molecular target: T3, human FcγRIIB α subunit extracellular …; experiment: hexamer ELISA (row shifted)
[16] = molecular target: T4, human neonatal Fc receptor (FcRn), …; experiment: FcRn ELISA
Experimental: FcRn Binding ELISA: For measuring FcRn binding activity of IgG variants, ELISA plates were coated with 2 µg/ml streptavidin (Zymed, South San Francisco) in 50 mM carbonate buffer, pH 9.6, at 4° C. overnight and blocked with PBS-0.5% BSA, pH 7.2 at room temperature for one hour. Biotinylated FcRn (prepared using biotin-X-NHS from Research Organics, Cleveland, Ohio and used at 1–2 µg/ml) in PBS-0.5% BSA, 0.05% polysorbate 20, pH 7.2, was added to the plate and incubated for one hour. Two fold serial dilutions of IgG standard (1.6–100 ng/ml) or variants in PBS-0.5% BSA, 0.05% polysorbate 20, pH 6.0, were added to the plate and incubated for two hours. Bound IgG was detected using peroxidase labeled goat F(ab')_2 anti-human IgG F(ab')_2 in the above pH 6.0 buffer (Jackson ImmunoResearch, West Grove, Pa.) followed by 3,3',5,5'-tetramethyl benzidine (Kirgaard & Perry Laboratories) as the substrate. […] Absorbance was read at 450 nm on a Vmax plate reader (Molecular Devices, Menlo Park, Calif.). Titration curves were fit with a four-parameter nonlinear regression curve-fitting program (KaleidaGraph, Synergy software, Reading, Pa.). Concentrations of IgG variants corresponding to the mid-point absorbance of the titration curve of the standard were calculated and then divided by the concentration of the standard corresponding to the mid-point absorbance of the standard titration curve.

[17] = molecular target: T9, human FcγRIIA-H131 α subunit extracellular domain-6His-GST fusion (human, UniProt P12318 34-217); experiment: ELISA, IgG:IgE hexamers on receptor-GST
T9 construct: also called FcγRIIA-His131; not shown: glutathione S-transferase (GST)
T9 sequence: T2 sequence with R134H

[18] = molecular target: T10, human FcγRIIIA-F158 α subunit extracellular domain-6His-GST fusion (human, UniProt P08637 17-208); experiment: ELISA, IgG:IgE hexamers on receptor-GST
T10 construct: also called FcγRIIIA-Phe158; not shown: glutathione S-transferase (GST)

[19] = molecular target: T11, human FcγRIIA-R131 α subunit extracellular domain-6His-GST fusion (human, UniProt P12318 34-217); experiment: ELISA, IgG:IgE hexamers on receptor-GST
T11 construct: also called FcγRIIA-Arg131; not shown: glutathione S-transferase (GST)
T11 sequence: T2 sequence

[20] = molecular target: T12, human FcγRIIB α subunit extracellular domain-6His-GST fusion (human, UniProt P31994 43-217); experiment: ELISA, IgG:IgE hexamers on receptor-GST
T12 construct: not shown: glutathione S-transferase (GST)
T12 sequence: T3 sequence

[21] = molecular target: T13, human FcγRIIIA-Phe158 α subunit extracellular domain-His6-GST fusion protein (human, UniProt P08637 17-208); experiment: ELISA, IgG:IgE hexamer on coated FcγRIIIA-Phe158-GST; value carried over from an earlier table (printed in Table 8)
T13 construct: ELISA-format target; also called FcγRIIIA-F158; not shown: glutathione S-transferase (GST)

[22] = molecular target: T14, human FcγRIIIA-Val158 α subunit extracellular domain-His6-GST fusion protein (human, UniProt P08637 17-208); experiment: ELISA format, hexameric complex on FcγRIIIA-Val158
T14 construct: ELISA-format target; also called FcγRIIIA-V158; not shown: glutathione S-transferase (GST)

[23] = molecular target: T15, human FcγRIIIA-Phe158 with human γ-chain on stably transfected CHO cells (human, UniProt P08637 17-254; P30273 19-86); experiment: flow cytometry, monomeric IgG on CHO cells with FcγRIIIA-Phe158 α- and γ-chains
T15 construct: whole, on cells; CHO cells stably transfected with the α- and γ-chains of the receptor; also called FcγRIIIA-Phe158 (cell-based assay)
Experimental: CHO cell transfection was carried out using Superfect (Qiagen) according to the manufacturer's instructions. […] Receptor expression levels were determined by staining with anti-FcγRIII monoclonal antibody 3G8 (Medarex). Binding of IgG1 variants was performed by adding monomeric IgG in staining buffer to 5×10^5 cells and incubating in 96 well round-bottom tissue culture plates (Costar, Cambridge, Mass.) at 4° C. for 30 min. Cells were washed three times with staining buffer and IgG binding detected by addition of 1:200 PE-F(ab')_2 fragment of goat anti-human IgG and incubation for 30 min at 4° C. After washing, immunofluorescence staining was analyzed on a FACScan flow cytometer using Cellquest software (Becton Dickinson). Dead cells were excluded from analysis by addition of 1 μg/ml propidium iodide.
For FcγRIIIA, the selected variants were assayed in the ELISA-format as well as on stable-transfected CHO cell lines expressing the γ-chains (FcγRIIIA-Phe158 or FcγRIIIA-Val158) with the associated human α-chain.

[24] = molecular target: T13, human FcγRIIIA-Phe158 α subunit …; experiment: ELISA format, hexameric complex on FcγRIIIA-Phe158; separate assays run together with the Val158 assays
[25] = molecular target: T16, human FcγRIIIA-Val158 with human γ-chain on stably transfected CHO cells (human, UniProt P08637 17-254; P30273 19-86); experiment: flow cytometry, monomeric IgG on CHO cells with FcγRIIIA-Val158 α- and γ-chains
T16 construct: whole, on cells; CHO cells stably transfected with the α- and γ-chains of the receptor; also called FcγRIIIA-Val158 (cell-based assay); FcγRIIIA-V158
T16 sequence (P08637 17-254 F176V, chain 1 of 2): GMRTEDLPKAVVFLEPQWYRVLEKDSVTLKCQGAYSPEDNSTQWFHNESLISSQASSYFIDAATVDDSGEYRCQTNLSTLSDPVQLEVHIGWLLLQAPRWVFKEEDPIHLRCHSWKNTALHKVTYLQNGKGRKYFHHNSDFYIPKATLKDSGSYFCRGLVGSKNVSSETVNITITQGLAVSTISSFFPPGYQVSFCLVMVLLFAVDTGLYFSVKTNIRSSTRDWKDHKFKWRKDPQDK
T16 sequence (P30273 19-86, chain 2 of 2): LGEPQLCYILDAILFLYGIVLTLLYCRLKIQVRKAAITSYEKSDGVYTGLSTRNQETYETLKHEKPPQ

T6 sequence (P12314 other isoform, or with tags, fused parts or gaps): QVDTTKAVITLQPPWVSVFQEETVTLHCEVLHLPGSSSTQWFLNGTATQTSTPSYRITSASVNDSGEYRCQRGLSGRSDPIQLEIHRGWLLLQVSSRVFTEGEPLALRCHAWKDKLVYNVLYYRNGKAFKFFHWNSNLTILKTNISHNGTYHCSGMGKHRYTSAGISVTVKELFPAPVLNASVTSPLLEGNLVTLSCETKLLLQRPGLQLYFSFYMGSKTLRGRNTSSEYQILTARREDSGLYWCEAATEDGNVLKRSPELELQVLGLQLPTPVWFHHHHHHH
T4 sequence (P55899 24-297 limits assumed, chain 1 of 2): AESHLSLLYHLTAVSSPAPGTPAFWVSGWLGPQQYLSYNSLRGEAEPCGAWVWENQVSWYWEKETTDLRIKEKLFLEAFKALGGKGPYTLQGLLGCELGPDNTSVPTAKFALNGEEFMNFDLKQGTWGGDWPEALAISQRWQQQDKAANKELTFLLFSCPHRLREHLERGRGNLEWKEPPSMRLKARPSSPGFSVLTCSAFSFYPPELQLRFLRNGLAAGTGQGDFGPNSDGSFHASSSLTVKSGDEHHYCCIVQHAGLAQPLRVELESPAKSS
T4 sequence (P61769 21-119 limits assumed, chain 2 of 2): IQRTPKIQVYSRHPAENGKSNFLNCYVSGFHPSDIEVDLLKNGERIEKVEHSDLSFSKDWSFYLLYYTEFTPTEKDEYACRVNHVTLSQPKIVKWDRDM
T1 sequence (P08637 other isoform, or with tags, fused parts or gaps): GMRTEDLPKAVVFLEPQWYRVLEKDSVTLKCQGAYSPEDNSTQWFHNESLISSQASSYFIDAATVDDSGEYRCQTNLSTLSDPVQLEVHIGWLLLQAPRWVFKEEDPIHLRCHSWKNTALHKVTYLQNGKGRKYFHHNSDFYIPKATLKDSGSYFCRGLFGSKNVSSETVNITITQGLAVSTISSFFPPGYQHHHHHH
T13 sequence (P08637 other isoform, or with tags, fused parts or gaps, form in doubt): as the sequence (P08637 other isoform, or with tags, fused parts or gaps) above
T15 sequence (P08637 17-254, chain 1 of 2): as the sequence (P08637 17-254 F176V, chain 1 of 2) above, with V160F counted along it
T15 sequence (P30273 19-86, chain 2 of 2): as the sequence (P30273 19-86, chain 2 of 2) above
T14 sequence (P08637 other isoform, or with tags, fused parts or gaps, form in doubt): as the sequence (P08637 other isoform, or with tags, fused parts or gaps) above, with F160V counted along it
T10 sequence (P08637 other isoform, or with tags, fused parts or gaps, form in doubt): as the sequence (P08637 other isoform, or with tags, fused parts or gaps) above

B1: anti-IgE E27 IgG1 Asp270Ala (antibody)
heavy: not shown
light: DIQLTQSPSSLSASVGDRVTITCRASKPVDGEGDSYLNWYQQKPGKAPKLLIYAASYLESGVPSRFSGSGSGTDFTLTISSLQPEDFATYYCQQSHEDPYTFGQGTKVEIKRTVAAPSVFIFPPSDEQLKSGTASVVCLLNNFYPREAKVQWKVDNALQSGNSQESVTEQDSKDSTYSLSSTLTLSKADYEKHKVYACEVTHQGLSSPVTKSFNRGEC
notes: also called D270(283)A
[1]
  ratio to native IgG1: 0.14 ratio
[2]
  ratio to native IgG1: 0.06 ratio
[3]
  ratio to native IgG1: 0.1 ratio
[4]
  ratio to native IgG1: 1.05 ratio
[5]
  reduction in binding against native IgG1: 50%
[6]
  ratio to native IgG1: 0.76 ratio

B2: anti-IgE E27 IgG1 variant Lys320Ala (antibody)
heavy: not shown
light: B1 light
notes: also called K320(339)A; IG2 48
[7]
  H131/R131: 1.1 ratio (H131 value/R131 value)
[8]
  ratio of binding of the variant to that of native IgG1: 1.13 ratio (variant/native IgG1)
[9]
  ratio of binding of the variant to that of native IgG1: 1.05 ratio (variant/native IgG1)
[10]
  ratio of binding of the variant to that of native IgG1: 1.14 ratio (variant/native IgG1)

B3: anti-IgE E27 IgG1 Ser267Gly (antibody)
heavy: not shown
light: B1 light
[11]
  binding result: no binding
[5]
  reduction in binding against native IgG1: 50%

B4: anti-IgE E27 IgG1 Tyr436Ala (antibody)
heavy: not shown
light: B1 light
[12]
  ratio to native IgG1: 0.99 ratio
[13]
  ratio to native IgG1: 0.91 ratio
[14]
  ratio to native IgG1: 0.93 ratio
[15]
  ratio to native IgG1: 0.91 ratio
[4]
  ratio to native IgG1: < 0.1 ratio

B5: anti-IgE E27 IgG1 T307Q (antibody)
heavy: not shown
light: B1 light
[16]
  binding result: binds

B6: E27 IgG1 variant S267(280)G (antibody)
heavy: not shown
light: B1 light
notes: also called IG2 189
[17]
  ratio to native IgG1: 0.59
[18]
  ratio to native IgG1: 0.08
[19]
  ratio to native IgG1: 1.18
[20]
  ratio to native IgG1: 0.95

B7: anti-IgE E27 IgG1 His435Ala (antibody)
heavy: not shown
light: B1 light
[12]
  ratio to native IgG1: 1.25 ratio
[13]
  ratio to native IgG1: 0.78 ratio
[14]
  ratio to native IgG1: 0.77 ratio
[15]
  ratio to native IgG1: 0.72 ratio
[4]
  ratio to native IgG1: < 0.1 ratio

B8: anti-IgE E27 IgG1 variant Ser298Ala/Glu333Ala/Lys334Ala (antibody)
heavy: EVQLVESGGGLVQPGGSLRLSCAVSGYSITSGYSWNWIRQAPGKGLEWVASIKYSGETKYNPSVKGRITISRDDSKNTFYLQMNSLRAEDTAVYYCARGSHYFGHWHFAVWGQGTLVTVSSASTKGPSVFPLAPSSKSTSGGTAALGCLVKDYFPEPVTVSWNSGALTSGVHTFPAVLQSSGLYSLSSVVTVPSSSLGTQTYICNVNHKPSNTKVDKKVEPKSCDKTHTCPPCPAPELLGGPSVFLFPPKPKDTLMISRTPEVTCVVVDVSHEDPEVKFNWYVDGVEVHNAKTKPREEQYNATYRVVSVLTVLHQDWLNGKEYKCKVSNKALPAPIAATISKAKGQPREPQVYTLPPSREEMTKNQVSLTCLVKGFYPSDIAVEWESNGQPENNYKTTPPVLDSDGSFFLYSKLTVDKSRWQQGNVFSCSVMHEALHNHYTQKSLSLSPGK
light: B1 light
notes: also called IG2 110
[21]
  ratio of binding of the variant to that of native IgG1: 1.51 ratio (variant/native IgG1)
[22]
  ratio of binding of the variant to that of native IgG1: 1.11 ratio (variant/native IgG1)
[23]
  ratio of binding of the variant to that of native IgG1: 3.42 ratio (variant/native IgG1)
[24]
  ratio of binding of the variant to that of native IgG1: 2.17 ratio (variant/native IgG1)
[25]
  ratio of binding of the variant to that of native IgG1: 1.65 ratio (variant/native IgG1)

B9: anti-IgE E27 IgG1 Ser254Ala (antibody)
heavy: not shown
light: B1 light
[12]
  ratio to native IgG1: 0.96 ratio
[13]
  ratio to native IgG1: 0.73 ratio
[14]
  ratio to native IgG1: 0.97 ratio
[15]
  ratio to native IgG1: 1.15 ratio
[4]
  ratio to native IgG1: < 0.1 ratio
